Data taken from US20170275357A1 (Bristol-Myers Squibb, published 2017).
Where two headings read alike, the source gives them in different places.

T1: human IL-17F homodimer (human, UniProt Q96PD4 31-163)
T1 sequence: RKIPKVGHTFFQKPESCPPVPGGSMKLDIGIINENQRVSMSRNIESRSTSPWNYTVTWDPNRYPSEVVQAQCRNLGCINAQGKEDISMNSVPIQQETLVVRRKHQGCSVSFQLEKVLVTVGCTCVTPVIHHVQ


How the values were obtained:
[1] = target: human IL-23Rα/human IL-12Rβ1 on BaF3 transfectants (human, UniProt Q5VWK5 24-629; P42701 24-662); experiment: cell-based or functional assay
Chain of human IL-23Rα/human IL-12Rβ1 on BaF3 transfectants (Q5VWK5 24-629, chain 1 of 2, other chains not shown): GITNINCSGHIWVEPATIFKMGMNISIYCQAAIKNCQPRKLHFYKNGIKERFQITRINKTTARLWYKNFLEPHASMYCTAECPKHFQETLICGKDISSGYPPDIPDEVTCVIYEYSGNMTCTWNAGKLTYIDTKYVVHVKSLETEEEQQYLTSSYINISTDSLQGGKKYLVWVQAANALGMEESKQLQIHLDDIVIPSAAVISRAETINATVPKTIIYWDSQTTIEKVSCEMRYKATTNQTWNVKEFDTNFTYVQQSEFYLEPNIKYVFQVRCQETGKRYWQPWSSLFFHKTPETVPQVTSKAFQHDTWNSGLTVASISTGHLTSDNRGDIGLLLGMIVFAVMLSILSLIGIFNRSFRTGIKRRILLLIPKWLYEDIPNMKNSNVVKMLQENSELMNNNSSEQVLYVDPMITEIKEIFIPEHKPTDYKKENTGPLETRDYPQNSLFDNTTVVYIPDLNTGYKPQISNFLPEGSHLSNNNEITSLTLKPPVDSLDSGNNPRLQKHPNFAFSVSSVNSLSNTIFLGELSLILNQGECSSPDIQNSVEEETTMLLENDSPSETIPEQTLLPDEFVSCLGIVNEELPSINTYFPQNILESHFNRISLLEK

human IL-17A homodimer [2] = target: T2, human IL-17A homodimer (human, UniProt Q16552 24-155); experiment: cell-based or functional assay
[3] = target: T3, human IL-17A/F heterodimer (human, UniProt Q16552 24-155; Q96PD4 31-163); experiment: cell-based or functional assay
human IL-17F homodimer [4] = target: T1, human IL-17F homodimer; experiment: cell-based or functional assay
human IL-17A homodimer [5] = target: T2, human IL-17A homodimer; experiment: cell-based or functional assay; remark: listed apart in the source
[6] = target: T3, human IL-17A/F heterodimer; experiment: cell-based or functional assay; remark: listed apart in the source
human IL-17F homodimer [7] = target: T1, human IL-17F homodimer; experiment: cell-based or functional assay; remark: listed apart in the source
human IL-17F homodimer [8] = target: T1, human IL-17F homodimer; experiment: SPR Biacore T100, captured antibody, bivalent analyte model
Experimental: (§1) Binding kinetics and affinity studies were performed on a BIACORE® T100 system (GE Healthcare, Piscataway, N.J.). Methods for the BIACORE® T100 were programmed using BIACORE® T100 Control Software, v 2.0. For these experiments, the humanized anti-human IL-17A/F antibodies were captured onto a CM4 sensor chip via either goat anti-human IgG Fc-gamma antibody (Jackson ImmunoResearch, West Grove, Pa.) or goat anti-mouse IgG Fc-gamma antibody (Jackson ImmunoResearch). Binding experiments with the IL-17 molecules were performed at 25° C. in a buffer of 10 mM HEPES, 150 mM NaCl, 3 mM EDTA, 0.05% Surfactant P20 (GE Healthcare), 1 mg/mL bovine serum albumin, pH 7.4.
(§2) The capture antibody, goat anti-human IgG Fc-gamma, was diluted to concentration of 20 μg/mL in 10 mM sodium acetate pH 5.0, and then covalently immobilized to all four flow cells of a CM4 sensor chip using amine coupling chemistry (EDC:NHS). […] A capture antibody density of approximately 5000 RU was obtained. The humanized anti-human IL-17A/F antibodies were captured onto flow cell 2, 3, or 4 of the CM4 chip at a density ranging from 60-150 RU. Capture of the test antibodies to the immobilized surface was performed at a flow rate of 10 μL/min. The BIACORE® instrument measures the mass of protein bound to the sensor chip surface, and thus, capture of the test antibody was verified for each cycle. […] The serial dilutions were injected over the surface and allowed to specifically bind to the test antibody captured on the sensor chip. Duplicate injections of each antigen concentration were performed with an association time of 7 minutes and dissociation time of 15 minutes. Kinetic binding studies were performed with a flow rate of 50 μL/min. In between cycles, the flow cell was washed with 20 mM hydrochloric acid to regenerate the surface. This wash step removed both the captured test antibody and any bound antigen from the immobilized antibody surface. The test antibody was subsequently captured again in the next cycle.
(§3) Data was compiled using the BIACORE® T100 Evaluation software (version 2.0).

human IL-17A homodimer [9] = target: T2, human IL-17A homodimer; experiment: as above
Experimental: as §1, §2, §3

[10] = target: T3, human IL-17A/F heterodimer; experiment: as above
Experimental: as §1, §2, §3

| Binder | IC50, NIH/3T3/KZ170 NF-kB luciferase reporter (human IL-17A homodimer [5]) [nM] | IC50, NIH/3T3/KZ170 NF-kB luciferase reporter [6] [nM] | IC50, NIH/3T3/KZ170 NF-kB luciferase reporter (human IL-17F homodimer [7]) [nM] | further results |
| --- | --- | --- | --- | --- |
| human IL-23 (IL-23p19/IL-12B heterodimer) (ligand) chain 1: RAVPGGSSPAWTQCQQLSQKLCTLAWSAHPLVGHMDLREEGDEETTNDVPHIQCGDGCDPQGLRDNSQFCLQRIHQGLIFYEKLLGSDIFTGEPSLLPDSPVGQLHASLLGLSQLLQPEGHHWETQQIPSLSPSQPWQRLLLRFKILRSLQAFVAVAARVFAHGAATLSP chain 2: IWELKKDVYVVELDWYPDAPGEMVVLTCDTPEEDGITWTLDQSSEVLGSGKTLTIQVKEFGDAGQYTCHKGGEVLSHSLLLLHKKEDGIWSTDILKDQKEPKNKTFLRCEAKNYSGRFTCWWLTTISTDLTFSVKSSRGSSDPQGVTCGAATLSAERVRGDNKEYEYSVECQEDSACPAAEESLPIEVMVDAVHKLKYENYTSSFFIRDIIKPDPPKNLQLKPLKNSRQVEVSWEYPDTWSTPHSYFSLTFCVQVQGKSKREKKDRVFTDKTSATVICRKNASISVRAQDRYYSSSWSEWASVPCS | – | – | – | EC50, STAT3 phosphorylation in Baf3/huIL-23Ra/huIL-12Rb1 transfectants [1]: 0.02 nM |
| 339-33 (antibody, human IgG1, V domains shown) VH: QVQLVQSGAEVKKPGASVKVSCKASGYTFTEYTMHWVRQAPGQRLEWMGGINPNSGGVSYNQNFKGRVTITRDTSASTAYMELSSLRSEDTAVYYCARGGDGYYTNYFDIDYWGQGTTVTVSS VL: EIVLTQSPDFQSVTPKEKVTITCSASSSVNYMHWYQQKPDQSPKLLIKDTSKLASGVPSRFSGSGSGTDFTLTINSLEAEDAATYYCQQWNSHPLTFGQGTKLEIK | – | – | – | IC50, NIH/3T3/KZ170 NF-kB luciferase reporter (human IL-17A homodimer [2]): > 600 nM; IC50, NIH/3T3/KZ170 NF-kB luciferase reporter [3]: 9.7 nM; IC50, NIH/3T3/KZ170 NF-kB luciferase reporter (human IL-17F homodimer [4]): 1.7 nM |
| 339-105 (antibody, human IgG1, V domains shown) VH: QVQLVQSGAEVKKPGASVKVSCKASGYTFTEYTMHWVRQAPGQRLEWMGGINPNSGGVSYNQNFKGRVTITRDTSSSTAYMELSSLRSEDTAVFYCARGGDGYYTNYFDIDYWGQGTTVTVSS VL: DIQMTQSPSSLSASVGDRVTITCSASSSVNYMHWYQQKPGKVPKLLIYDTSKLASGVPSRFSGSGSGTDFTLTISSLQPEDVATYYCQQWNSHPLTFGQGTKLEIK | > 600 | 23 | 2.6 | – |
| 339-127 (antibody, human IgG1, V domains shown) VH: QVQLVQSGAEVKKPGASVKVSCKASGYTFNEYTMHWVKQSHGQRLEWMGGINPNSGGVSYNQNFKGRVTITRDTSASTAYMELSSLRSEDTAVYYCARGGDGYYTNYFDIDYWGQGTTVTVSS VL: DIQMTQSPSSLSASVGDRVTITCSASSSVNYMHWYQQKPGKVPKLLIYDTSKLASGVPSRFSGSGSGTDFTLTISSLQPEDVATYYCQQWNSHPLTFGQGTKLEIK | 190 | 3.4 | 0.5 | – |
| 339-128 (antibody, human IgG1, V domains shown) VH: QVQLVQSGAEVKKPGASVKVSCKASGYTFTEYTMHWVRQAPGQRLEWMGGINPNSGGVSYNQNFKGKATLTVDTSASTAYMELSSLRSEDTAVYYCARGGDGYYTNYFDIDYWGQGTTVTVSS VL: DIQMTQSPSSLSASVGDRVTITCSASSSVNYMHWYQQKPGKVPKLLIYDTSKLASGVPSRFSGSGSGTDFTLTISSLQPEDVATYYCQQWNSHPLTFGQGTKLEIK | 5.1 | 0.41 | 0.25 | – |
| 339-35 (antibody, human IgG1, V domains shown) VH: QVQLVQSGAEVKKPGASVKVSCKASGYTFNEYTMHWVKQSHGQRLEWMGGINPNSGGVSYNQNFKGRVTITRDTSASTAYMELSSLRSEDTAVYYCARGGDGYYTNYFDIDYWGQGTTVTVSS VL: EIVLTQSPDFQSVTPKEKVTITCSASSSVNYMHWYQQKPDQSPKLLIKDTSKLASGVPSRFSGSGSGTDFTLTINSLEAEDAATYYCQQWNSHPLTFGQGTKLEIK | > 600 | 2.4 | 0.64 | – |
| 339-104 (antibody, human IgG1, V domains shown) VH: QVQLVQSGAEVKKPGASVKVSCKASGYTFNEYTMHWVKQSHGQRLEWMGGINPNSGGVSYNQNFKGKATLTVDTSSSTAYMELSSLRSEDTAVFYCARGGDGYYTNYFDIDYWGQGTTVTVSS VL: DIQMTQSPSSLSASVGDRVTITCSASSSVNYMHWYQQKPGKVPKLLIYDTSKLASGVPSRFSGSGSGTDFTLTISSLQPEDVATYYCQQWNSHPLTFGQGTKLEIK | 1.5 | 0.83 | 0.83 | – |
| 339-37 (antibody, human IgG1, V domains shown) VH: QVQLVQSGAEVKKPGASVKVSCKASGYTFTEYTMHWVRQAPGQRLEWMGGINPNSGGVSYNQNFKGRVTITRDTSSSTAYMELSSLRSEDTAVFYCARGGDGYYTNYFDIDYWGQGTTVTVSS VL: EIVLTQSPDFQSVTPKEKVTITCSASSSVNYMHWYQQKPDQSPKLLIKDTSKLASGVPSRFSGSGSGTDFTLTINSLEAEDAATYYCQQWNSHPLTFGQGTKLEIK | > 600 | 20 | 3.5 | – |
| 339-125 (antibody, human IgG1, V domains shown) VH: QVQLVQSGAEVKKPGASVKVSCKASGYTFNEYTMHWVKQSHGQRLEWMGGINPNSGGVSYNQNFKGKATLTVDTSASTAYMELSSLRSEDTAVYYCARGGDGYYTNYFDIDYWGQGTTVTVSS VL: DIQMTQSPSSLSASVGDRVTITCSASSSVNYMHWYQQKPGKVPKLLIYDTSKLASGVPSRFSGSGSGTDFTLTISSLQPEDVATYYCQQWNSHPLTFGQGTKLEIK | 1.5 | 0.81 | 0.83 | Kd (human IL-17F homodimer [8]): 0.1 nM; koff (human IL-17F homodimer [8]): 0.0002 s⁻¹; kon (human IL-17F homodimer [8]): 2e+06 M⁻¹ s⁻¹; Kd (human IL-17A homodimer [9]): 1 nM; koff (human IL-17A homodimer [9]): 0.003 s⁻¹; kon (human IL-17A homodimer [9]): 2e+06 M⁻¹ s⁻¹; Kd [10]: 0.3 nM; koff [10]: 0.0006 s⁻¹; kon [10]: 2e+06 M⁻¹ s⁻¹ |
| 339-39 (antibody, human IgG1, V domains shown) VH: QVQLVQSGAEVKKPGASVKVSCKASGYTFNEYTMHWVKQSHGQRLEWMGGINPNSGGVSYNQNFKGKATLTVDTSSSTAYMELSSLRSEDTAVFYCARGGDGYYTNYFDIDYWGQGTTVTVSS VL: EIVLTQSPDFQSVTPKEKVTITCSASSSVNYMHWYQQKPDQSPKLLIKDTSKLASGVPSRFSGSGSGTDFTLTINSLEAEDAATYYCQQWNSHPLTFGQGTKLEIK | 7.6 | 0.23 | 0.25 | – |
| 339-38 (antibody, human IgG1, V domains shown) VH: QVQLVQSGAEVKKPGASVKVSCKASGYTFNEYTMHWVKQSHGQRLEWMGGINPNSGGVSYNQNFKGKATLTVDTSASTAYMELSSLRSEDTAVYYCARGGDGYYTNYFDIDYWGQGTTVTVSS VL: EIVLTQSPDFQSVTPKEKVTITCSASSSVNYMHWYQQKPDQSPKLLIKDTSKLASGVPSRFSGSGSGTDFTLTINSLEAEDAATYYCQQWNSHPLTFGQGTKLEIK | 8.2 | 0.27 | 0.27 | Kd (human IL-17F homodimer [8]): 0.3 nM; koff (human IL-17F homodimer [8]): 0.0006 s⁻¹; kon (human IL-17F homodimer [8]): 2e+06 M⁻¹ s⁻¹; Kd (human IL-17A homodimer [9]): 1 nM; koff (human IL-17A homodimer [9]): 0.005 s⁻¹; kon (human IL-17A homodimer [9]): 4e+06 M⁻¹ s⁻¹; Kd [10]: 0.4 nM; koff [10]: 0.0004 s⁻¹; kon [10]: 1e+06 M⁻¹ s⁻¹ |
| 339-126 (antibody, human IgG1, V domains shown) VH: QVQLVQSGAEVKKPGASVKVSCKASGYTFTEYTMHWVRQAPGQRLEWMGGINPNSGGVSYNQNFKGRVTITRDTSASTAYMELSSLRSEDTAVYYCARGGDGYYTNYFDIDYWGQGTTVTVSS VL: DIQMTQSPSSLSASVGDRVTITCSASSSVNYMHWYQQKPGKVPKLLIYDTSKLASGVPSRFSGSGSGTDFTLTISSLQPEDVATYYCQQWNSHPLTFGQGTKLEIK | – | – | – | IC50, NIH/3T3/KZ170 NF-kB luciferase reporter (human IL-17A homodimer [2]): > 600 nM; IC50, NIH/3T3/KZ170 NF-kB luciferase reporter [3]: 24 nM; IC50, NIH/3T3/KZ170 NF-kB luciferase reporter (human IL-17F homodimer [4]): 1.6 nM |
| 339-71 (antibody, human IgG1, V domains shown) VH: QVQLVQSGAEVKKPGASVKVSCKASGYTFTEYTMHWVRQAPGQRLEWMGGINPNSGGVSYNQNFKGKATLTVDTSASTAYMELSSLRSEDTAVYYCARGGDGYYTNYFDIDYWGQGTTVTVSS VL: EIVLTQSPDFQSVTPKEKVTITCSASSSVNYMHWYQQKPDQSPKLLIKDTSKLASGVPSRFSGSGSGTDFTLTINSLEAEDAATYYCQQWNSHPLTFGQGTKLEIK | 16 | 0.37 | 0.2 | – |
